# In patent publication US20120270271A1 (University of Washington, published 2012):
# T1: Tse2 (type VI secretion exported protein 2) with glycogen synthase kinase (GSK) tag (Pseudomonas aeruginosa PAO1, UniProt Q9I0E0 1-158)
# T1 construct: Toxin as detected in the co-immunoprecipitation in P. aeruginosa lysate; it is placed last here only by default; also called PA2702; not shown: GSK tag used for detection
# T1 sequence: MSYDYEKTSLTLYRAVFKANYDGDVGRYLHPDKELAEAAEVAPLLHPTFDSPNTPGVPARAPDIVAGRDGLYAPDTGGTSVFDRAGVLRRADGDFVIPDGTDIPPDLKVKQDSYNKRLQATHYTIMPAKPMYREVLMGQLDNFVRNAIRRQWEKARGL
# B1: Tsi2-V (type VI secretion immunity protein 2 fused to the vesicular stomatitis virus G epitope) (other)
# chain: MNLKPQTLMVAIQCVAARTRELDAQLQNDDPQNAAELEQLLVGYDLAADDLKNAYEQALGQYSGLPPYDRLIEEPAS
# Biological target: T1, Tse2 (type VI secretion exported …)
# Assay: co-immunoprecipitation from P. aeruginosa lysate with anti-VSV-G agarose beads, Western blot for GSK-tagged Tse2
binder,measurement,value
B1,binding result,binds
